Laboratory results reported in the supplement of paper PMC9112550, “Optimization of the antimicrobial peptide Bac7 by deep mutational scanning” (BMC Biology, 2022).

test system: Escherichia coli TOP10; experiment: shrunken log2 fold change of peptide-encoding DNA abundance (4.5 h post-induction vs induction); higher = less antimicrobial activity (less host growth inhibition); settings: time post-induction: 4.5 h; library: site-saturation at positions 5, 18, 19, 20
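Also: peptides expressed intracellularly from a pBAD plasmid library in pooled LB shake-flask culture, induced with 0.3% L-arabinose, DNA abundance read by NGS, three biological replicates, DESeq2 with apeglm shrinkage.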

Row | Sequence | shrunken log2 fold change
1 | RRIRNRPPRLPRPRPRPIPHPRP | 0.134
2 | RRIRMRPPRLPRPRPRPKMAPRP | 2.29
3 | RRIRERPPRLPRPRPRPLRGPRP | 0.529
4 | RRIRMRPPRLPRPRPRPADRPRP | 0.707
5 | RRIRTRPPRLPRPRPRPSGVPRP | 0.00112
6 | RRIRNRPPRLPRPRPRPCMIPRP | -0.143
7 | RRIRWRPPRLPRPRPRPKQHPRP | 0.299
8 | RRIRYRPPRLPRPRPRPQTHPRP | -1.08
9 | RRIRQRPPRLPRPRPRPHPAPRP | -0.114
10 | RRIRHRPPRLPRPRPRPNNQPRP | -0.465
11 | RRIRYRPPRLPRPRPRPLLIPRP | -0.798
12 | RRIRMRPPRLPRPRPRPVNWPRP | 0.223
13 | RRIRHRPPRLPRPRPRPHMVPRP | -1.01
14 | RRIRSRPPRLPRPRPRPTYRPRP | -0.195
15 | RRIRIRPPRLPRPRPRPDRSPRP | -0.364
16 | RRIRMRPPRLPRPRPRPLMAPRP | 2.47
17 | RRIRFRPPRLPRPRPRPSHSPRP | -0.171
18 | RRIRQRPPRLPRPRPRPGNSPRP | -0.391
19 | RRIRPRPPRLPRPRPRPRCCPRP | 0.119
20 | RRIRFRPPRLPRPRPRPGITPRP | -0.45
21 | RRIRTRPPRLPRPRPRPTMNPRP | -0.371
22 | RRIRSRPPRLPRPRPRPYSIPRP | -0.376
23 | RRIRSRPPRLPRPRPRPIYSPRP | 0.101
24 | RRIRLRPPRLPRPRPRPIVKPRP | -0.0195
25 | RRIRQRPPRLPRPRPRPSLCPRP | -0.0894

Row | Sequence | shrunken log2 fold change
26 | RRIRARPPRLPRPRPRPEVVPRP | 1.32
27 | RRIRCRPPRLPRPRPRPQISPRP | -0.785
28 | RRIRFRPPRLPRPRPRPLPKPRP | 0.55
29 | RRIRRRPPRLPRPRPRPLVMPRP | 0.164
30 | RRIRPRPPRLPRPRPRPATDPRP | 0.00951
31 | RRIRMRPPRLPRPRPRPQVTPRP | -0.116
32 | RRIRVRPPRLPRPRPRPGADPRP | 0.163
33 | RRIRSRPPRLPRPRPRPDWKPRP | -0.0322
34 | RRIRTRPPRLPRPRPRPCAHPRP | -0.209
35 | RRIRERPPRLPRPRPRPENWPRP | -0.0337
36 | RRIRYRPPRLPRPRPRPIAPPRP | -0.0464
37 | RRIRSRPPRLPRPRPRPRIDPRP | 0.0938
38 | RRIRRRPPRLPRPRPRPKYVPRP | -0.194
39 | RRIRMRPPRLPRPRPRPSFKPRP | -0.0765
40 | RRIRLRPPRLPRPRPRPCHVPRP | -0.412
41 | RRIRKRPPRLPRPRPRPNVIPRP | 0.0501
42 | RRIRWRPPRLPRPRPRPMGKPRP | 0.561
43 | RRIRMRPPRLPRPRPRPASHPRP | 0.343
44 | RRIRCRPPRLPRPRPRPMMWPRP | -0.137
45 | RRIRMRPPRLPRPRPRPDNHPRP | -0.21
46 | RRIRVRPPRLPRPRPRPPPGPRP | 1.01
47 | RRIRARPPRLPRPRPRPYREPRP | -0.0268
48 | RRIRYRPPRLPRPRPRPMFHPRP | -1.24
49 | RRIRNRPPRLPRPRPRPAWIPRP | 0.275
50 | RRIRTRPPRLPRPRPRPVGLPRP | -0.00734

Row | Sequence | shrunken log2 fold change
51 | RRIRMRPPRLPRPRPRPALCPRP | 0.221
52 | RRIRYRPPRLPRPRPRPVQYPRP | -0.0125
53 | RRIRQRPPRLPRPRPRPIWYPRP | 0.0288
54 | RRIRDRPPRLPRPRPRPIRRPRP | -0.00194
55 | RRIRPRPPRLPRPRPRPFGRPRP | -0.314
56 | RRIRKRPPRLPRPRPRPYNGPRP | -0.00151
57 | RRIRPRPPRLPRPRPRPHSEPRP | -0.0259
58 | RRIRCRPPRLPRPRPRPVARPRP | 0.255
59 | RRIRNRPPRLPRPRPRPPTIPRP | 0.244
60 | RRIRMRPPRLPRPRPRPATMPRP | 0.256
61 | RRIRLRPPRLPRPRPRPWSDPRP | -0.188
62 | RRIRPRPPRLPRPRPRPPKRPRP | 0.496
63 | RRIRGRPPRLPRPRPRPWKLPRP | 0.0361
64 | RRIRLRPPRLPRPRPRPPDVPRP | -0.0115
65 | RRIRGRPPRLPRPRPRPCNNPRP | 0.0304
66 | RRIRERPPRLPRPRPRPLSFPRP | 0.329
67 | RRIRWRPPRLPRPRPRPDEAPRP | 0.0325
68 | RRIRHRPPRLPRPRPRPAIHPRP | -0.303
69 | RRIRARPPRLPRPRPRPAKAPRP | 0.332
70 | RRIRPRPPRLPRPRPRPFKEPRP | -0.54
71 | RRIRHRPPRLPRPRPRPMCDPRP | -0.0945
72 | RRIRCRPPRLPRPRPRPRGIPRP | 0.094
73 | RRIRNRPPRLPRPRPRPIGHPRP | -0.0117
74 | RRIRKRPPRLPRPRPRPTYKPRP | -0.198
75 | RRIRVRPPRLPRPRPRPKMSPRP | -0.122

Row | Sequence | shrunken log2 fold change
76 | RRIRWRPPRLPRPRPRPELRPRP | 0.0333
77 | RRIRIRPPRLPRPRPRPPSWPRP | 0.0866
78 | RRIRVRPPRLPRPRPRPATSPRP | -0.0495
79 | RRIRRRPPRLPRPRPRPVIFPRP | 0.145
80 | RRIRQRPPRLPRPRPRPFPFPRP | -0.00711
81 | RRIRRRPPRLPRPRPRPVYMPRP | -0.0789
82 | RRIRIRPPRLPRPRPRPNAMPRP | -0.0812
83 | RRIRCRPPRLPRPRPRPEFNPRP | -0.0266
84 | RRIRPRPPRLPRPRPRPQNDPRP | -0.371
85 | RRIRRRPPRLPRPRPRPAFVPRP | 0.36
86 | RRIRIRPPRLPRPRPRPERDPRP | -0.175
87 | RRIRRRPPRLPRPRPRPCVKPRP | 0.252
88 | RRIRNRPPRLPRPRPRPMTQPRP | -0.249
89 | RRIRSRPPRLPRPRPRPQKKPRP | -0.0597
90 | RRIRLRPPRLPRPRPRPCRHPRP | -0.601
91 | RRIRRRPPRLPRPRPRPWKEPRP | -0.00773
92 | RRIRARPPRLPRPRPRPQHAPRP | 0.269
93 | RRIRNRPPRLPRPRPRPKYEPRP | -0.167
94 | RRIRSRPPRLPRPRPRPPRHPRP | 0.219
95 | RRIRRRPPRLPRPRPRPPKKPRP | 1.12
96 | RRIRHRPPRLPRPRPRPNNWPRP | -0.269
97 | RRIRYRPPRLPRPRPRPMHNPRP | 0.162
98 | RRIRQRPPRLPRPRPRPIETPRP | 0.00824
99 | RRIRERPPRLPRPRPRPIVIPRP | -0.233
100 | RRIRPRPPRLPRPRPRPQQEPRP | 0.0468

Row | Sequence | shrunken log2 fold change
101 | RRIRWRPPRLPRPRPRPVCMPRP | 0.193
102 | RRIRCRPPRLPRPRPRPWMWPRP | -0.00829
103 | RRIRHRPPRLPRPRPRPPQCPRP | 0.178
104 | RRIRIRPPRLPRPRPRPNQKPRP | 0.0249
105 | RRIRSRPPRLPRPRPRPPDFPRP | 0.29
106 | RRIRARPPRLPRPRPRPACLPRP | 0.347
107 | RRIRMRPPRLPRPRPRPVDCPRP | 0.029
108 | RRIRERPPRLPRPRPRPFFPPRP | -0.241
109 | RRIRVRPPRLPRPRPRPKCCPRP | -0.0953
110 | RRIRLRPPRLPRPRPRPMVSPRP | -0.0017
111 | RRIRDRPPRLPRPRPRPLSSPRP | 0.184
112 | RRIRARPPRLPRPRPRPYVWPRP | 0.053
113 | RRIRRRPPRLPRPRPRPLRDPRP | 1.05
114 | RRIRCRPPRLPRPRPRPHIRPRP | -0.585
115 | RRIRYRPPRLPRPRPRPWKVPRP | -0.498
116 | RRIRDRPPRLPRPRPRPLMPPRP | 0.097
117 | RRIRWRPPRLPRPRPRPVLYPRP | 0.0298
118 | RRIRERPPRLPRPRPRPWNCPRP | -0.327
119 | RRIRRRPPRLPRPRPRPEKMPRP | 0.296
120 | RRIRSRPPRLPRPRPRPDHVPRP | -0.0207
121 | RRIRRRPPRLPRPRPRPSDQPRP | 0.0918
122 | RRIRPRPPRLPRPRPRPMNGPRP | 0.137
123 | RRIRERPPRLPRPRPRPYLRPRP | -0.319
124 | RRIRPRPPRLPRPRPRPEMIPRP | -0.0258
125 | RRIRQRPPRLPRPRPRPPHNPRP | 1.15

Row | Sequence | shrunken log2 fold change
126 | RRIRRRPPRLPRPRPRPHMSPRP | -0.0996
127 | RRIRWRPPRLPRPRPRPLDRPRP | 0.146
128 | RRIRRRPPRLPRPRPRPPAYPRP | 0.618
129 | RRIRIRPPRLPRPRPRPIDHPRP | -0.0137
130 | RRIRIRPPRLPRPRPRPQRPPRP | -0.465
131 | RRIRERPPRLPRPRPRPRYTPRP | -0.244
132 | RRIRTRPPRLPRPRPRPMWSPRP | -0.0629
133 | RRIRVRPPRLPRPRPRPKGCPRP | 0.015
134 | RRIRQRPPRLPRPRPRPMKIPRP | -0.0609
135 | RRIRKRPPRLPRPRPRPTGDPRP | 0.727
136 | RRIRIRPPRLPRPRPRPKCWPRP | 0.139
137 | RRIRNRPPRLPRPRPRPLQRPRP | 0.0374
138 | RRIRVRPPRLPRPRPRPNMKPRP | -0.524
139 | RRIRHRPPRLPRPRPRPWHKPRP | -0.113
140 | RRIRHRPPRLPRPRPRPCEAPRP | -0.136
141 | RRIRRRPPRLPRPRPRPVCCPRP | 0.158
142 | RRIRQRPPRLPRPRPRPKYGPRP | -0.3
143 | RRIRARPPRLPRPRPRPCGGPRP | 0.425
144 | RRIRNRPPRLPRPRPRPYWQPRP | -0.215
145 | RRIRMRPPRLPRPRPRPCTPPRP | 0.154
146 | RRIRSRPPRLPRPRPRPYDLPRP | -0.261
147 | RRIRSRPPRLPRPRPRPCQTPRP | 0.131
148 | RRIRVRPPRLPRPRPRPQLFPRP | 0.229
149 | RRIRNRPPRLPRPRPRPQSFPRP | -0.0341
150 | RRIRLRPPRLPRPRPRPEFFPRP | 0.02
